Test [1] concerns the target T1, PVRIG (FACS-based competition assay of FIGS. 7 and 15) (Homo sapiens, UniProt Q6DKI7).
T1 construct: made because the format of the assay is only described in U.S. Ser. No. 15/048,967; also called human PVRIG
T1 sequence (receptor, looked up): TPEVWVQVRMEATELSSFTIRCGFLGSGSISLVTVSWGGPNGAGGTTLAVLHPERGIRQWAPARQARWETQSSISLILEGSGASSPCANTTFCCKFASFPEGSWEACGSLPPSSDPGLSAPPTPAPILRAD
In words: FACS-based competition assay of PVRIG blocking; format and competitor not given.

Test [2] deals with T1, PVRIG (FACS-based competition assay of …). The description is as above. The source holds these as a separate data set.
Test [3] concerns the target T2, human PVRIG on cells (human, UniProt Q6DKI7 1-326).
T2 construct: whole, on cells; over-expressed on HEK cells or endogenous on Jurkat and CD8 T cells; also called hPVRIG; HEK hPVRIG cells
T2 sequence (looked up): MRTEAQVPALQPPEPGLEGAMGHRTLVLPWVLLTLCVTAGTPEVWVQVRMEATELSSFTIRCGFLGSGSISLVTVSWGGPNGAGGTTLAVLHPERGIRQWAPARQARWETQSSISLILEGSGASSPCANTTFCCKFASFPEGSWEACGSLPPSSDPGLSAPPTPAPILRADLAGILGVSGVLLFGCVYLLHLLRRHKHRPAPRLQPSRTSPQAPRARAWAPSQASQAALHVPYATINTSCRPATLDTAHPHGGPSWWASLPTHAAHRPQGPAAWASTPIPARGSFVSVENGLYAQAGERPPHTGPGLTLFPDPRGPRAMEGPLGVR
In words: FACS, HEK hPVRIG cells (HEK OE).

The target in test [4] is T2, human PVRIG on cells. In words: FACS on HEK hPVRIG cells; column head 'Kd', unit nM from legend paragraph 75.
For test [5], the target named is T2, human PVRIG on cells. In words: flow cytometry, Jurkat cells.
Test [6] concerns the target T2, human PVRIG on cells. As to the kind of experiment: flow cytometry, HEK hPVRIG cells. (In general: A flow cytometer gives signals particle by particle.)
Test [7] has as its target T2, human PVRIG on cells. In words: FACS on Jurkat cells; column head 'Kd', unit nM from legend paragraph 75.
Test [8] has as its target T2, human PVRIG on cells. As to the kind of experiment: FACS on Jurkat cells pre-incubated with Isotype (unconjugated).
Test [9] addresses T2, human PVRIG on cells. In words: flow cytometry titration, HEK hPVRIG cells.
In test [10] the target is T2, human PVRIG on cells. As to the kind of experiment: flow cytometry titration, Jurkat cells.
The target of test [11] is T3, cynomolgus PVRIG on cells (cynomolgus, UniProt A0A2K5WVV8 41-322).
T3 construct: whole, on cells; also called cPVRIG; expi cPVRIG cells
T3 sequence: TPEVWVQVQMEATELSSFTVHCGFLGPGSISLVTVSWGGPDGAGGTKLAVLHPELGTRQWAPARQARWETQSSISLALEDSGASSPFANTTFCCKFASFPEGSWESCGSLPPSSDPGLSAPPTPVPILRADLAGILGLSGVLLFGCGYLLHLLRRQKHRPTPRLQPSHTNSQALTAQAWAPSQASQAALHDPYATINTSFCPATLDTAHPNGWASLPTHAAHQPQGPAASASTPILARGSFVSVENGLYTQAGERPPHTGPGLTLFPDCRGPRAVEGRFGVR
In words: flow cytometry titration, expi cPVRIG cells.

Test [12] has as its target T2, human PVRIG on cells. In words: FACS on Jurkat cells pre-incubated with CHA.7.518.1 (unconjugated).
Test [13] addresses T2, human PVRIG on cells. In words: FACS competition: PVRL2 mFc binding to HEK hPVRIG cells.
The target in a further test is T4, PVRIG Fc (UniProt Q6DKI7 41-171, limits assumed, biotinylated (Example 5)).
T4 construct: also called biotinylated PVRIG Fc protein; PVRIG-Fc-fusion protein
T4 sequence (looked up): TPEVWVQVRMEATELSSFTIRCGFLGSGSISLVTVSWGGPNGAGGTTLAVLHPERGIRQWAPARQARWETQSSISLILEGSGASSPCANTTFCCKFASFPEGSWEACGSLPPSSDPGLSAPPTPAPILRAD
As to the kind of experiment: FACS competition: biotinylated PVRIG Fc (33 nM) binding to HEK cells with endogenous PVRL2.

For test [14], the target named is T2, human PVRIG on cells. In words: FACS on Jurkat cells pre-incubated with CHA.7.538.1.2 (unconjugated).

This is an account of results in patent US20240075137A1 (COMPUGEN, published 2024).

Like-named read-outs stand apart in the source and are kept apart here.

B1: CHA.7.518 (antibody, V domains shown)
VH: EVQLQQSGPELVKPGASVKISCKASGYTFTDYNINWVKQSHGKSLEWIGYIYPYIGGSGYNQKFKSKATLSADNPSSTAYMELRSLTSEDSAVYYCAREDKTARNAMDYWGQGTPVTVSS
VL: DIQMTQSPASLSVSVGETVTIICRVSENIYSNLAWYQQKQGKSPQLLVYEATNLAEGVPSRFSGSGSGTQYSLKINSLQSEDFGSYYCQHFWGTPYTFGGGTKLEIK
For the molecule B1, the IC50 in [1] and in test [2] was 23.1 nM in each case. This molecule also registered a half-maximal effective concentration (EC50) with human PVRIG on cells [3] of 0.36 nM. Further, the dissociation constant (Kd) came out at 0.36 nM with human PVRIG on cells [4] and 0.24 nM with human PVRIG on cells [7]. In addition, the “fold higher affinity than CPA.7.021” value with human PVRIG on cells [5] was approximately 13 fold; with human PVRIG on cells [6], approximately 8 fold.

B2: CHA.7.538.1.2.H4(S241P) (antibody, human IgG4 S228P, kappa, V domains shown)
VH: QVQLVQSGAEVKKPGASVKVSCKASGYAFTNYLIEWVRQAPGQGLEWIGVINPGSGGIYYAQKFQGRVTMTADTSTSTVYMELSSLRSEDTAVYYCARSETHDTWFAYWGQGTLVTVSS
VL: DIQMTQSPSSLSASVGDRVTITCKASQSVRIAVAWFQQKPGKAPKALIYLASTRHTGVPSRFSGSGSGTDFTLTISSVQPEDFATYYCLQHWNYPYTFGQGTKLEIKR
notes: humanized, human IgG4 with S241P
For B2, the “% binding relative to maximum signal” value with human PVRIG on cells [8] amounted to 100%; with human PVRIG on cells [12] it was 32%; with human PVRIG on cells [14], 7%. Besides, the figures for the dissociation constant (Kd) (in the test with human PVRIG on cells [9]; in the test with human PVRIG on cells [10]; in [11]) were 0.86 nM, 0.59 nM and 0.58 nM, respectively. Besides, the concentration for half-maximal inhibition (IC50) turned out to be 2.53 nM with human PVRIG on cells [13] and 16.1 nM with PVRIG Fc.

By IC50 is commonly meant the concentration that gives 50% inhibition. Read a high IC50 as a need for much substance. The EC50 is the concentration giving half of the maximal effect. The term Kd denotes the free concentration of one partner at which half of the binding sites on the other are occupied at equilibrium, for simple one-to-one binding. Low readings indicate a tighter complex, high ones a looser complex.
